Experimental data published in publication PMC4117778.

Target: human DNA polymerase beta (polβ) (Homo sapiens, UniProt P06746 1-335)
Assay: X-ray crystallography; gapped binary complex, no incoming nucleotide; open conformation; 2.4 Å; Crystallization conditions not in material; kinetics (turnover only, not listed): 50 mM Tris-HCl pH 7.5, 5 mM MgCl2, 100 mM KCl, 80 nM DNA, 37°C

B1: single-nucleotide gapped DNA with templating Fm7dG (crystal) (dsDNA)
DNA 1: CCGACGTCGCATCAGC
DNA 2: GCTGATGCGA
DNA 3: GTCGG
modifications: template G6 = 2'-fluoro-N7-methyl-2'-deoxyguanosine (Fm7dG); 5'-phosphate on downstream primer GTCGG
**Q.** Does B1 bind?
**A.** binds
